Each substance was assayed on CC(C)CC1CC(=O)NC(=O)C1 (assay: purified protein). Conditions: 50 mmol L^-1 Tris-HCl pH 8.0, 40 °C, IBI 0.10-2.0 mg mL^-1.
Format: biochemical, Paraburkholderia phytofirmans

Q: Which Km does the source give for “BpIH (Paraburkholderia phytofirmans PsJN; H133N/S226L/Y37F)” here?
A: The Km was 8.48 ± 1.03 mM.

Q: And the kcat?
A: The kcat was 0.052 ± 0.00367 s⁻¹.

Q: What about the kcat/Km of the same substance?
A: Its kcat/Km is 5.67 M⁻¹ s⁻¹.

Q: What does the source list for “BpIH (Paraburkholderia phytofirmans PsJN; H133N/S226I/Y37F)”?
A: Km: 7.31 ± 0.73 mM; kcat: 0.0573 ± 0.005 s⁻¹; kcat/Km: 7.82 M⁻¹ s⁻¹

Q: What does the source list for “BpIH (Paraburkholderia phytofirmans PsJN)”?
A: Km: 9.02 ± 0.51 mM; kcat: 0.00967 ± 0.0075 s⁻¹; kcat/Km: 1.07 M⁻¹ s⁻¹

Q: For “BpIH (Paraburkholderia phytofirmans PsJN; S226L)”, which Km is on record?
A: The Km was 9.28 ± 1.09 mM.

Q: And the kcat?
A: The kcat was 0.0517 ± 0.00617 s⁻¹.

Q: What about the kcat/Km of the same substance?
A: Its kcat/Km is 5.47 M⁻¹ s⁻¹.
